From the supplement of paper PMC7125110 come the findings set out here.

± gives the standard error. This sample holds only a part of the variants without activity.

B1: glmS ribozyme (parent)
chain: AUAAAAGCGCCAGAACUACAGAAAUGUAGUUGACGAGGAGGAGGUUUAUCGAAUUUUCGGCGGAUGCCUCCAAA

Common to all, as to conditions: with glucosamine-6-phosphate
Variants of B1 are the subject of data set [1]. Description: self-cleavage kobs at 40 uM GlcN6P; higher = faster cleavage; RNA array. In short, it runs like this:
(§1)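 Tracking of barcoded ribozyme variants used a hybridised Cy3 probe at 37 °C, after in situ transcription by E. coli RNA polymerase on sequenced MiSeq chips. The flowed solution held 40 μM to 10 mM glucosamine-6-phosphate in HEPES/KCl/Mg(OAc)2 buffer, and imaging ran over ~14 h. kobs was taken from exponential decay fits of normalised per-tile medians, and kcat and KM from weighted Michaelis–Menten fits.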

Variants of B1 are the subject of data set [2]. Description: self-cleavage kobs at 160 uM GlcN6P; higher = faster cleavage; RNA array. The method, boiled down:
as §1

In data set [3] the parent is B1. Description: self-cleavage kobs at 640 uM GlcN6P; higher = faster cleavage; RNA array. In short, it runs like this:
as §1

Variants of B1 are the subject of data set [4]. Description: self-cleavage kobs at 2500 uM GlcN6P; higher = faster cleavage; RNA array. In short, it runs like this:
as §1

The variants in data set [5] derive from B1. Description: self-cleavage kobs at 10000 uM GlcN6P; higher = faster cleavage; RNA array. In short, it runs like this: as §1

U56A C71U: in the data set with glucosamine-6-phosphate [1], the “self-cleavage kobs at 40 uM GlcN6P” value is 0.000282 ± 3.8e-05 s⁻¹. Moreover, in the data set with glucosamine-6-phosphate [2], the “self-cleavage kobs at 160 uM GlcN6P” value is 0.000738 ± 0.00012 s⁻¹. Further, the “self-cleavage kobs at 640 uM GlcN6P” value with glucosamine-6-phosphate [3] is 0.00243 ± 0.00036 s⁻¹. Moreover, the “self-cleavage kobs at 2500 uM GlcN6P” value with glucosamine-6-phosphate [4] stood at 0.0201 ± 0.0072 s⁻¹. In addition, in the data set with glucosamine-6-phosphate [5], the “self-cleavage kobs at 10000 uM GlcN6P” value was determined as 0.018 ± 0.0044 s⁻¹.
For the variant G7U G43U C50U G51C, the “self-cleavage kobs at 40 uM GlcN6P” value in the data set with glucosamine-6-phosphate [1] is less than 1e-05 s⁻¹. Moreover, the “self-cleavage kobs at 10000 uM GlcN6P” value with glucosamine-6-phosphate [5] was less than 1e-05 s⁻¹.
Turning to A52G U57A G66U, in the data set with glucosamine-6-phosphate [1], the “self-cleavage kobs at 40 uM GlcN6P” value is less than 1e-05 s⁻¹. Moreover, the “self-cleavage kobs at 10000 uM GlcN6P” value in the data set with glucosamine-6-phosphate [5] worked out at 3.15e-05 ± 1.6e-05 s⁻¹.
As for A36U U46G A53U, in the data set with glucosamine-6-phosphate [1], the “self-cleavage kobs at 40 uM GlcN6P” value is less than 1e-05 s⁻¹. In addition, the “self-cleavage kobs at 640 uM GlcN6P” value with glucosamine-6-phosphate [3] is less than 1e-05 s⁻¹. The “self-cleavage kobs at 2500 uM GlcN6P” value in the data set with glucosamine-6-phosphate [4] is less than 1e-05 s⁻¹. The “self-cleavage kobs at 10000 uM GlcN6P” value in the data set with glucosamine-6-phosphate [5] is less than 1e-05 s⁻¹.
For U31A G62C C70G, the “self-cleavage kobs at 40 uM GlcN6P” value in the data set with glucosamine-6-phosphate [1] is less than 1e-05 s⁻¹.
Take G7U G35C U57A: the “self-cleavage kobs at 40 uM GlcN6P” value in the data set with glucosamine-6-phosphate [1] was less than 1e-05 s⁻¹. Besides, the “self-cleavage kobs at 2500 uM GlcN6P” value with glucosamine-6-phosphate [4] was less than 1e-05 s⁻¹.
Regarding C16A G29U U30G U49G C70U, the “self-cleavage kobs at 40 uM GlcN6P” value in the data set with glucosamine-6-phosphate [1] was less than 1e-05 s⁻¹.
Same read-out and setting: with U30A A39U G62U the figure was less than 1e-05 s⁻¹.
As to G38U U56G, the “self-cleavage kobs at 40 uM GlcN6P” value with glucosamine-6-phosphate [1] is less than 1e-05 s⁻¹. Further, in the data set with glucosamine-6-phosphate [4], the “self-cleavage kobs at 2500 uM GlcN6P” value was less than 1e-05 s⁻¹. Also, the “self-cleavage kobs at 10000 uM GlcN6P” value with glucosamine-6-phosphate [5] was less than 1e-05 s⁻¹.
On to C16U U45A, for which the “self-cleavage kobs at 40 uM GlcN6P” value in the data set with glucosamine-6-phosphate [1] turned out to be 0.00211 ± 0.00039 s⁻¹. The “self-cleavage kobs at 640 uM GlcN6P” value with glucosamine-6-phosphate [3] came to 0.0159 ± 0.003 s⁻¹. Moreover, the “self-cleavage kobs at 2500 uM GlcN6P” value with glucosamine-6-phosphate [4] is 0.0183 ± 0.0057 s⁻¹. Further, the “self-cleavage kobs at 10000 uM GlcN6P” value with glucosamine-6-phosphate [5] came out at 0.0689 ± 0.015 s⁻¹.
In the case of A6G C8A C58U, in the data set with glucosamine-6-phosphate [1], the “self-cleavage kobs at 40 uM GlcN6P” value is less than 1e-05 s⁻¹. Moreover, the “self-cleavage kobs at 10000 uM GlcN6P” value with glucosamine-6-phosphate [5] is less than 1e-05 s⁻¹.
For the variant G37A A42U C70A, the “self-cleavage kobs at 40 uM GlcN6P” value in the data set with glucosamine-6-phosphate [1] is less than 1e-05 s⁻¹.
As to G13C G60C, the “self-cleavage kobs at 40 uM GlcN6P” value in the data set with glucosamine-6-phosphate [1] was less than 1e-05 s⁻¹. Further, in the data set with glucosamine-6-phosphate [2], the “self-cleavage kobs at 160 uM GlcN6P” value was less than 1e-05 s⁻¹. Moreover, the “self-cleavage kobs at 10000 uM GlcN6P” value with glucosamine-6-phosphate [5] was less than 1e-05 s⁻¹.
Take G9A G44C: in the data set with glucosamine-6-phosphate [1], the “self-cleavage kobs at 40 uM GlcN6P” value was less than 1e-05 s⁻¹. For the same variant, in the data set with glucosamine-6-phosphate [3], the “self-cleavage kobs at 640 uM GlcN6P” value is less than 1e-05 s⁻¹. Besides, the “self-cleavage kobs at 2500 uM GlcN6P” value with glucosamine-6-phosphate [4] is less than 1e-05 s⁻¹.
Regarding C11G G59A C68A, the “self-cleavage kobs at 40 uM GlcN6P” value with glucosamine-6-phosphate [1] was less than 1e-05 s⁻¹. In addition, in the data set with glucosamine-6-phosphate [5], the “self-cleavage kobs at 10000 uM GlcN6P” value is less than 1e-05 s⁻¹.
Take C34G C50A A53G: the “self-cleavage kobs at 40 uM GlcN6P” value with glucosamine-6-phosphate [1] is less than 1e-05 s⁻¹.
On to A15U G44C U56C, for which the “self-cleavage kobs at 40 uM GlcN6P” value with glucosamine-6-phosphate [1] is less than 1e-05 s⁻¹. The “self-cleavage kobs at 160 uM GlcN6P” value in the data set with glucosamine-6-phosphate [2] is less than 1e-05 s⁻¹. In addition, in the data set with glucosamine-6-phosphate [3], the “self-cleavage kobs at 640 uM GlcN6P” value was less than 1e-05 s⁻¹. The “self-cleavage kobs at 2500 uM GlcN6P” value in the data set with glucosamine-6-phosphate [4] is less than 1e-05 s⁻¹. In addition, the “self-cleavage kobs at 10000 uM GlcN6P” value in the data set with glucosamine-6-phosphate [5] was less than 1e-05 s⁻¹.
Consider G32A C50G U56G C70U, for which the “self-cleavage kobs at 40 uM GlcN6P” value in the data set with glucosamine-6-phosphate [1] was 0.000356 ± 7.7e-05 s⁻¹. Further, the “self-cleavage kobs at 10000 uM GlcN6P” value with glucosamine-6-phosphate [5] was found to be 0.00032 ± 7.2e-05 s⁻¹.
With C34A C50G C68G, in the data set with glucosamine-6-phosphate [1], the “self-cleavage kobs at 40 uM GlcN6P” value is 0.000116 ± 2.4e-05 s⁻¹. Further, the “self-cleavage kobs at 10000 uM GlcN6P” value in the data set with glucosamine-6-phosphate [5] is 6.65e-05 ± 1.4e-05 s⁻¹.
For the variant C8U G29A G60U, the “self-cleavage kobs at 40 uM GlcN6P” value with glucosamine-6-phosphate [1] was less than 1e-05 s⁻¹. Moreover, in the data set with glucosamine-6-phosphate [3], the “self-cleavage kobs at 640 uM GlcN6P” value was less than 1e-05 s⁻¹. Besides, in the data set with glucosamine-6-phosphate [5], the “self-cleavage kobs at 10000 uM GlcN6P” value is less than 1e-05 s⁻¹.
Consider C10U A12G U46A U47G U49G, for which, in the data set with glucosamine-6-phosphate [1], the “self-cleavage kobs at 40 uM GlcN6P” value was less than 1e-05 s⁻¹.
Take U45C G63A: in the data set with glucosamine-6-phosphate [1], the “self-cleavage kobs at 40 uM GlcN6P” value was less than 1e-05 s⁻¹. For the same variant, the “self-cleavage kobs at 160 uM GlcN6P” value with glucosamine-6-phosphate [2] was less than 1e-05 s⁻¹. Besides, in the data set with glucosamine-6-phosphate [4], the “self-cleavage kobs at 2500 uM GlcN6P” value was less than 1e-05 s⁻¹. Further, in the data set with glucosamine-6-phosphate [5], the “self-cleavage kobs at 10000 uM GlcN6P” value is less than 1e-05 s⁻¹.
With G32C A39C G44A A48G U65C C68A C71A, in the data set with glucosamine-6-phosphate [1], the “self-cleavage kobs at 40 uM GlcN6P” value is less than 1e-05 s⁻¹. For the same variant, the “self-cleavage kobs at 10000 uM GlcN6P” value with glucosamine-6-phosphate [5] was less than 1e-05 s⁻¹.
For the variant U57G G63U, the “self-cleavage kobs at 40 uM GlcN6P” value with glucosamine-6-phosphate [1] was less than 1e-05 s⁻¹. Further, in the data set with glucosamine-6-phosphate [2], the “self-cleavage kobs at 160 uM GlcN6P” value was less than 1e-05 s⁻¹. In addition, in the data set with glucosamine-6-phosphate [4], the “self-cleavage kobs at 2500 uM GlcN6P” value was less than 1e-05 s⁻¹. In the data set with glucosamine-6-phosphate [5], the “self-cleavage kobs at 10000 uM GlcN6P” value is less than 1e-05 s⁻¹.
Turning to G35C U65A, the “self-cleavage kobs at 40 uM GlcN6P” value in the data set with glucosamine-6-phosphate [1] is less than 1e-05 s⁻¹. Also, the “self-cleavage kobs at 640 uM GlcN6P” value with glucosamine-6-phosphate [3] was less than 1e-05 s⁻¹. Moreover, the “self-cleavage kobs at 10000 uM GlcN6P” value with glucosamine-6-phosphate [5] is less than 1e-05 s⁻¹.
In the case of G7C U65A, the “self-cleavage kobs at 40 uM GlcN6P” value with glucosamine-6-phosphate [1] was less than 1e-05 s⁻¹. Further, in the data set with glucosamine-6-phosphate [3], the “self-cleavage kobs at 640 uM GlcN6P” value was less than 1e-05 s⁻¹. Moreover, the “self-cleavage kobs at 10000 uM GlcN6P” value in the data set with glucosamine-6-phosphate [5] is less than 1e-05 s⁻¹.
